Here are results for 136 substances from patent US20250011363A1, “OPTIMIZED SHORTENED PEPTIDE THAT BINDS TO ACETYLCHOLINE RECEPTOR, AND USE THEREOF” (SKINMED CO., LTD., priority 2021, published 2025).

This test concerns the target acetylcholine receptor (Homo sapiens, UniProt P02708). The test is described as follows: SPR binding affinity (RU) of optimized 5mer/6mer/7mer peptides, Examples 6-7. To be noted: SPR, peptides tested at 10 μM. How it is done:
Based on the frequencies of occurrence of the top 7 amino acids from Table 7 in Example 5, 600 peptides comprising these amino acids (top combinations) and those comprising the 13 less frequently occurring amino acids (bottom combinations) were synthesized for each series of 5mer, 6mer-1, and 6mer-2. The binding affinity of each sequence for the acetylcholine receptor was measured using Surface Plasmon Resonance (SPR) analysis method. The peptides were tested at a concentration of 10 μM. Additionally, the average binding affinities of the top and bottom combinations in each series are depicted in FIGS. 5-7.
Representative peptides identified in Example 6, two in each library, including 5mers (73, 311) and 6mers-1 (43, 210) and 6mers-2 (136, 233), were compared with the pre-optimized 6mer, 5mer-ND, and Synake.
On the technique in general: SPR reads the build-up and loss of mass on a sensor chip optically.

Where [1] appears, read: 5mer Top sequence (top combinations).
The mark [2] stands for this setting: Resonance Units, 5mer Bottom sequence (bottom combinations).

Chain of acetylcholine receptor (P02708 21-457): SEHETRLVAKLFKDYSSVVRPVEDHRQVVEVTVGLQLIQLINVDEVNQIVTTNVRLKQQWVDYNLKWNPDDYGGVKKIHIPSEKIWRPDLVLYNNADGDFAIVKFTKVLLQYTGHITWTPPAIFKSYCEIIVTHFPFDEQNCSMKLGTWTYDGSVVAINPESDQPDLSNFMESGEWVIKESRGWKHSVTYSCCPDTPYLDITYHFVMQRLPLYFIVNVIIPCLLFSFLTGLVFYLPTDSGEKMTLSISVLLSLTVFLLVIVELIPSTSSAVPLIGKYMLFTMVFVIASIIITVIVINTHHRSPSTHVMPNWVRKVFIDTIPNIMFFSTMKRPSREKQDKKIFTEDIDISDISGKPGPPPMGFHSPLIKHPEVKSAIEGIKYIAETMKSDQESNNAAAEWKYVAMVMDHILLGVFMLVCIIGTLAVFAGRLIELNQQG

With 5mer-486 (RWLQR), the Binding affinity (5mer Top sequence) is given as 53 Ru. On the same count and under the same terms, under 5mer-487 (RLVTK) stands 62 Ru; under 5mer-488 (KVRSR), 58 Ru. On the same count and under the same terms, the result for 5mer-489 (KSYSR) reads 63 Ru.

Turning to 5mer-490 (RWLLK), the Binding affinity (5mer Top sequence) stood at 60 Ru. On the same count and under the same terms, under 5mer-491 (KQIRR) stands 81 Ru; under 5mer-492 (RVVLR), 80 Ru; under 5mer-493 (KSIRR), 57 Ru. The same measure, in the same setting: under 5mer-494 (RGFCK) stands 54 Ru; under 5mer-495 (KVVTK), 52 Ru; under 5mer-496 (KGIQK), 81 Ru. Same read-out and setting: the result for 5mer-497 (KRRCR) reads 76 Ru.

As to 5mer-498 (KLISK), the Binding affinity (5mer Top sequence) turned out to be 53 Ru. Regarding 5mer-499 (RVLTK), where the note is “5mer Top sequence”, the Binding affinity came to 76 Ru.

For the substance 5mer-500 (KSLQK), the Binding affinity (5mer Top sequence) is on record as 63 Ru.

For 5mer-501 (KLQRK), where the note is “5mer Top sequence”, the Binding affinity is given as 78 Ru. For the substance 5mer-502 (RRISR), the Binding affinity (5mer Top sequence) is 84 Ru.

For the substance 5mer-503 (KRVSK), under “5mer Top sequence”, the Binding affinity was 61 Ru. The same measure, in the same setting: the result for 5mer-504 (KQIQR) reads 72 Ru.

5mer-505 (RQIYR): under “5mer Top sequence”, the Binding affinity is listed as 71 Ru. The same measure, in the same setting: under 5mer-506 (RGRLR) stands 51 Ru; under 5mer-507 (KWVQK), 84 Ru; under 5mer-508 (KGLQK), 67 Ru. Regarding 5mer-509 (RVQRK), the Binding affinity (5mer Top sequence) worked out at 61 Ru. As to 5mer-510 (RQLSK), the Binding affinity (5mer Top sequence) is recorded as 71 Ru. Turning to 5mer-511 (KSLSR), under “5mer Top sequence”, the Binding affinity came out at 56 Ru. On to 5mer-512 (RLYLK), for which the Binding affinity under setting [1] is given as 70 Ru. Same read-out and setting: under 5mer-513 (RWYYK) stands 83 Ru; under 5mer-514 (KLLLK), 52 Ru. The same measure, in the same setting: under 5mer-515 (RGQRK) stands 56 Ru; under 5mer-516 (KWQTR), 83 Ru; under 5mer-517 (KGYTR), 70 Ru.

As for 5mer-518 (RVYYR), the Binding affinity under setting [1] is reported as 87 Ru. Same read-out and setting: under 5mer-519 (RLYSK) stands 72 Ru; under 5mer-520 (RVLLK), 86 Ru. Still for that read-out and setting: the result for 5mer-521 (KRFRK) reads 78 Ru. Consider 5mer-522 (RLVYR), for which, under setting [1], the Binding affinity came to 78 Ru. Turning to 5mer-523 (KQFQK), the Binding affinity under setting [1] is reported as 84 Ru. For 5mer-524 (RRICR), under setting [1], the Binding affinity worked out at 83 Ru. 5mer-525 (KQRYK): the Binding affinity under setting [1] was 51 Ru. On the same count and under the same terms, under 5mer-526 (KQFSR) stands 54 Ru. Same read-out and setting: the result for 5mer-527 (KSVQR) reads 70 Ru; that for 5mer-528 (RVLLR), 50 Ru; that for 5mer-529 (RVQSR), 84 Ru. The same measure, in the same setting: the result for 5mer-530 (RWRRR) reads 80 Ru. Regarding 5mer-531 (KRQSR), under setting [1], the Binding affinity worked out at 65 Ru.

With 5mer-532 (KQICK), the Binding affinity under setting [1] amounted to 75 Ru. For 5mer-533 (RLVYK), under setting [1], the Binding affinity turned out to be 84 Ru. For the substance 5mer-534 (RRQLR), under setting [1], the Binding affinity is 50 Ru. On the same count and under the same terms, under 5mer-535 (KSLLR) stands 70 Ru. The same measure, in the same setting: the result for 5mer-536 (RLITK) reads 78 Ru.

For the substance 5mer-537 (RLRLR), the Binding affinity under setting [1] amounted to 59 Ru. 5mer-538 (KQQQR): under setting [1], the Binding affinity is listed as 72 Ru. The same measure, in the same setting: under 5mer-539 (RVVTR) stands 70 Ru; under 5mer-540 (RQFYR), 74 Ru; under 5mer-541 (KVFLK), 80 Ru. Still for that read-out and setting: the result for 5mer-542 (KRYTR) reads 85 Ru; that for 5mer-543 (RLRLK), 65 Ru.

On to 5mer-544 (RLQLR), for which the Binding affinity under setting [1] was determined as 63 Ru. Take 5mer-545 (KGQYR): under setting [1], the Binding affinity is recorded as 80 Ru. In the case of 5mer-546 (KVVLK), the Binding affinity under setting [1] is given as 65 Ru. Turning to 5mer-547 (KQVTK), under setting [1], the Binding affinity is listed as 77 Ru. Still for that read-out and setting: the result for 5mer-548 (KWLCK) reads 60 Ru; that for 5mer-549 (KWITK), 78 Ru; that for 5mer-550 (RQQSR), 83 Ru. Same read-out and setting: the result for 5mer-551 (RWQYR) reads 59 Ru; that for 5mer-552 (RLYSR), 63 Ru. Regarding 5mer-553 (KLLSR), the Binding affinity under setting [1] is 72 Ru.

For the substance 5mer-554 (RLLSK), the Binding affinity under setting [1] stood at 65 Ru. Regarding 5mer-555 (KVQCK), the Binding affinity under setting [1] is 71 Ru. Same read-out and setting: the result for 5mer-556 (RVIYK) reads 52 Ru; that for 5mer-557 (KQRRK), 87 Ru.

Take 5mer-558 (RWRYK): under setting [1], the Binding affinity is 84 Ru.

For 5mer-559 (KQQLK), the Binding affinity under setting [1] is 81 Ru.

With 5mer-560 (KWYQR), the Binding affinity under setting [1] worked out at 59 Ru. On the same count and under the same terms, under 5mer-561 (KWRCK) stands 72 Ru; under 5mer-562 (RVRQR), 70 Ru. On the same count and under the same terms, the result for 5mer-563 (RLVLK) reads 60 Ru; that for 5mer-564 (RSRYR), 74 Ru.

For 5mer-565 (RLVSK), the Binding affinity under setting [1] is on record as 77 Ru.

In the case of 5mer-566 (KQLYK), the Binding affinity under setting [1] stood at 78 Ru. Same read-out and setting: the result for 5mer-567 (RRYCK) reads 63 Ru; that for 5mer-568 (KQITR), 64 Ru. 5mer-569 (RQQRK): the Binding affinity under setting [1] came to 79 Ru. 5mer-570 (KLVRR): the Binding affinity under setting [1] is recorded as 56 Ru. Consider 5mer-571 (RRLTK), for which the Binding affinity under setting [1] is 51 Ru. Consider 5mer-572 (KLRTK), for which, under setting [1], the Binding affinity was 58 Ru.

5mer-573 (RSIYR): the Binding affinity under setting [1] came out at 84 Ru. In the case of 5mer-574 (KGFTR), the Binding affinity under setting [1] came to 59 Ru. The same measure, in the same setting: under 5mer-575 (KGFYR) stands 69 Ru; under 5mer-576 (RLFRK), 62 Ru; under 5mer-577 (KLVTK), 77 Ru. On to 5mer-578 (KSVLR), for which, under setting [1], the Binding affinity is recorded as 65 Ru. On the same count and under the same terms, under 5mer-579 (RSLYK) stands 53 Ru; under 5mer-580 (RGYTR), 70 Ru; under 5mer-581 (KGVLR), 65 Ru. On the same count and under the same terms, the result for 5mer-582 (RGICK) reads 82 Ru; that for 5mer-583 (KVVYR), 75 Ru. The same measure, in the same setting: the result for 5mer-584 (KQIQK) reads 76 Ru; that for 5mer-585 (RSVSK), 74 Ru; that for 5mer-586 (KGRRR), 78 Ru.

As to 5mer-587 (RVITR), under setting [1], the Binding affinity is 66 Ru. 5mer-588 (RSFTR): the Binding affinity under setting [1] turned out to be 60 Ru.

In the case of 5mer-589 (KGLCR), the Binding affinity under setting [1] was 58 Ru. Still for that read-out and setting: the result for 5mer-590 (KQYTK) reads 81 Ru. With 5mer-591 (RVYTK), the Binding affinity under setting [1] is reported as 61 Ru. For the substance 5mer-592 (RWLCR), the Binding affinity under setting [1] is on record as 56 Ru. With 5mer-593 (KQYLK), the Binding affinity under setting [1] was 77 Ru. The same measure, in the same setting: the result for 5mer-594 (KQYSR) reads 50 Ru; that for 5mer-595 (KWQQR), 58 Ru. 5mer-596 (KLQQR): under setting [1], the Binding affinity was 56 Ru. Same read-out and setting: the result for 5mer-597 (KLVSR) reads 68 Ru; that for 5mer-598 (RVRSK), 84 Ru. On the same count and under the same terms, under 5mer-599 (KWVSR) stands 61 Ru; under 5mer-600 (KLYSK), 64 Ru. For 5mer-601 (RFCFK), under setting [2], the Binding affinity stood at 13 Ru. The same measure, in the same setting: the result for 5mer-602 (KMSVR) reads 12 Ru; that for 5mer-603 (RKEPK), 27 Ru. 5mer-604 (RKEGK): the Binding affinity under setting [2] is reported as 13 Ru. Turning to 5mer-605 (RECFK), the Binding affinity under setting [2] stood at 22 Ru.

As for 5mer-606 (RIHWK), the Binding affinity under setting [2] is recorded as 25 Ru. Still for that read-out and setting: the result for 5mer-607 (RIEER) reads 25 Ru; that for 5mer-608 (RDSER), 20 Ru; that for 5mer-609 (RKTMK), 32 Ru. Same read-out and setting: the result for 5mer-610 (KCDDK) reads 16 Ru; that for 5mer-611 (KDHIR), 33 Ru; that for 5mer-612 (KCTDK), 23 Ru. On the same count and under the same terms, the result for 5mer-613 (RAEFR) reads 20 Ru. Take 5mer-614 (RNTWK): the Binding affinity under setting [2] worked out at 29 Ru. On the same count and under the same terms, under 5mer-615 (KCCNR) stands 20 Ru; under 5mer-616 (KFCPR), 15 Ru.

Turning to 5mer-617 (RYCAK), under setting [2], the Binding affinity is recorded as 28 Ru. The same measure, in the same setting: the result for 5mer-618 (RMSWK) reads 19 Ru. As for 5mer-619 (KCSFK), the Binding affinity under setting [2] is recorded as 19 Ru. On to 5mer-620 (RCMHK), for which the Binding affinity under setting [2] came to 23 Ru.

For 5mer-621 (KKSMK), under setting [2], the Binding affinity is 13 Ru.
